According to patent US20210230599, “STEM-LOOP COMPOSITIONS AND METHODS FOR INHIBITING INTERLEUKIN-8” (VITRISA THERAPEUTICS, INC., published 2021):

What was measured:
[1] = target: T1, Interleukin-8 (IL8, CXCL8), C-terminal His-tagged (Homo sapiens, UniProt P10145 SEQ:1-72); assay: competition; competition TR-FRET; L2 mutant; conditions: tags: C-terminal 6xHis (Sino Biological)
Method: (§1) Activity of each of these variants were tested using a time resolved competition TR-FRET assay in which the labeled parent Aptamer 3 was competed with increasing concentrations of unlabeled variants for binding to IL8 (FIG. 14). Briefly, 2-fold dilutions of thermally equilibrated aptamers were made in TR-FRET Buffer (50 mM MOPS, pH 7.4, 125 mM NaCl, 5 mM KCl, 50 μM CHAPS, 0.1 mg/mL BSA, 1 mM CaCl₂, and 1 mM MgCl₂). 5 μL of aptamer or control solution was added to 5 μl mix of 10 nM C-terminal His-tagged-IL8, 60 nM ALEXA FLUOR® 647-labeled Aptamer, and 5 nM anti-His-Eu (Perkin Elmer) in a black wall low volume 384 well plate (Greiner). For control, 5 μl of 1000-fold excess of unlabeled parent aptamer or 5 μl TR-FRET buffer alone was added to the mix of ALEXA FLUOR® 647-labeled aptamer, His-IL8, and anti-His-Eu. The plate was covered with a plate seal and subsequently incubated in the dark for 1 hour at room temperature. The plate was read on a Biotek CYTATION™ 5 plate reader. Samples were excited at 330 nm and fluorescent values were collected at 665 nm. Data analysis was performed by subtracting the background value and plotting as percent inhibition, normalized to baseline in the absence of competitor. The values were fit by [Inhibitor] vs. response—Variable slope (four parameters) using GraphPad Prism Version 7.0 and then normalized to aptamer control to obtain an IC₅₀ relative to parent aptamer. Data is presented as log values of relative IC₅₀.
(§2) Like L1, most of L2 was also found to be 100% conserved in the degenerate selection, except residue U20, which was ˜92% conserved (FIG. 31). To test sequence requirements of L2, variants of Aptamer 32 were made, where each position of L2 was individually replaced with the other 3 bases and tested for binding in the competition TR-FRET assay.

[2] = target: T1, Interleukin-8 (IL8, CXCL8), C-terminal …; assay: competition; competition TR-FRET; conditions: tags: C-terminal His (Sino Biological); stem-loop
Method: To better understand the sequence requirements and to confirm the stem structures of members of the Aptamer 3 family as determined from sequence covariation analysis from both the primary and secondary (degenerate) selections, a series of variants which included mutations and deletions to the predicted stems were synthesized and screened (Table 24). […] Briefly, 2-fold dilutions of thermally equilibrated aptamers were made in TR-FRET Buffer (50 mM MOPS, pH 7.4, 125 mM NaCl, 5 mM KCl, 50 μM CHAPS, 0.1 mg/mL BSA, 1 mM CaCl₂, and 1 mM MgCl₂). 5 μL of aptamer or control solution was added to 5 μl mix of 10 nM C-terminal His-tagged-IL8, 60 nM ALEXA FLUOR® 647-labeled Aptamer, and 5 nM anti-His-Eu (Perkin Elmer) in a black wall low volume 384 well plate (Greiner). For control, 5 μl of 1000-fold excess of unlabeled parent aptamer or 5 μl TR-FRET buffer alone was added to the mix of ALEXA FLUOR® 647-labeled aptamer, His-IL8, and anti-His-Eu. The plate was covered with a plate seal and subsequently incubated in the dark for 1 hour at room temperature. The plate was read on a Biotek CYTATION™ 5 plate reader. Samples were excited at 330 nm and fluorescent values were collected at 665 nm. Data analysis was performed by subtracting the background value and plotting as percent inhibition, normalized to baseline in the absence of competitor. The values were fit by [Inhibitor] vs. response—Variable slope (four parameters) using GraphPad Prism Version 7.0 and then normalized to aptamer control to obtain an IC₅₀ relative to parent aptamer. Data is presented as log values of relative IC₅₀.
as §2

[3] = target: T1, Interleukin-8 (IL8, CXCL8), C-terminal …; assay: competition; competition TR-FRET; conditions: tags: C-terminal 6xHis (Sino Biological)
Method: To better understand the sequence requirements and to confirm the stem structures of members of the Aptamer 3 family as determined from sequence covariation analysis from both the primary and secondary (degenerate) selections, a series of variants which included mutations and deletions to the predicted stems were synthesized and screened (Table 24). Activity of each of these variants were tested using a time resolved competition TR-FRET assay in which the labeled parent Aptamer 3 was competed with increasing concentrations of unlabeled variants for binding to IL8 (FIG. 14). Briefly, 2-fold dilutions of thermally equilibrated aptamers were made in TR-FRET Buffer (50 mM MOPS, pH 7.4, 125 mM NaCl, 5 mM KCl, 50 μM CHAPS, 0.1 mg/mL BSA, 1 mM CaCl₂, and 1 mM MgCl₂). 5 μL of aptamer or control solution was added to 5 μl mix of 10 nM C-terminal His-tagged-IL8, 60 nM ALEXA FLUOR® 647-labeled Aptamer, and 5 nM anti-His-Eu (Perkin Elmer) in a black wall low volume 384 well plate (Greiner). For control, 5 μl of 1000-fold excess of unlabeled parent aptamer or 5 μl TR-FRET buffer alone was added to the mix of ALEXA FLUOR® 647-labeled aptamer, His-IL8, and anti-His-Eu. The plate was covered with a plate seal and subsequently incubated in the dark for 1 hour at room temperature. The plate was read on a Biotek CYTATION™ 5 plate reader. Samples were excited at 330 nm and fluorescent values were collected at 665 nm. Data analysis was performed by subtracting the background value and plotting as percent inhibition, normalized to baseline in the absence of competitor. The values were fit by [Inhibitor] vs. response—Variable slope (four parameters) using GraphPad Prism Version 7.0 and then normalized to aptamer control to obtain an IC₅₀ relative to parent aptamer. Data is presented as log values of relative IC₅₀.

[4] = target: T1, Interleukin-8 (IL8, CXCL8), C-terminal …; assay: competition; competition TR-FRET; conditions: tags: C-terminal 6xHis (Sino Biological); remark: listed apart in the source
Method: as §1
Variants of Aptamers 94, 99, and 100 were synthesized with an optimized stem S1 and G18 was also replaced with a Sp3 spacer to see if further improvements could be made to these molecules (Table 30 and FIG. 20).

[5] = target: T1, Interleukin-8 (IL8, CXCL8), C-terminal …; assay: TR-FRET, 500 pM IL8, protein-limited; estimated about 20 pM; conditions: tags: C-terminal 6xHis (Sino Biological); label: Alexa Fluor 647; stem-loop
Method: Under these assay conditions, the ability to measure the affinity accurately is limited by the input IL8 protein concentration, and the apparent Kd under these protein-limiting conditions was determined to be 8 nM.

B1: Aptamer 174 (ssRNA)
RNA: CGGUGGGAAAUGUGACAUGGGUUGCCG
modifications: 2'-F G, 2'-OMe A/C/U, 5' C6NH2, 3' idT
In the case of B1, the binding signal [1] is reported as > 10 fold worse than Aptamer 8.

B2: Aptamer 173 (ssRNA)
RNA: CGGUGGGAAAUGUGUGAUGGGUUGCCG
modifications: 2'-F G; 2'-OMe A,C,U; 5' C6NH2; 3' idT
B2 was tested, and the binding signal [2] was > 10 fold worse than Aptamer 8.

B3: Aptamer 171 (ssRNA)
RNA: CGGUGGGAAAUGUGCGAUGGGUUGCCG
modifications: 2'-F G, 2'-OMe A/C/U, 5' C6NH2, 3' idT
With B3 the binding signal [1] was > 10 fold worse than Aptamer 8.

B4: Aptamer 170 (ssRNA)
RNA: CGGUGGGAAAUGUUAGAUGGGUUGCCG
modifications: 2'-F G; 2'-OMe A,C,U; 5' C6NH2; 3' idT
With B4 the binding signal [2] was > 10 fold worse than Aptamer 8.

B5: Aptamer 168 (ssRNA)
RNA: CGGUGGGAAAUGUCAGAUGGGUUGCCG
modifications: 2'-F G, 2'-OMe A/C/U, 5' C6NH2, 3' idT
For B5, the binding signal [1] was > 10 fold worse than Aptamer 8.

B6: Aptamer 178 (ssRNA)
RNA: CGGUGGGAAAUGUGAGGUGGGUUGCCG
modifications: 2'-F G, 2'-OMe A/C/U, 5' C6NH2, 3' idT
For B6, the binding signal [1] was > 10 fold worse than Aptamer 8.

B7: Aptamer 43 (ssRNA)
RNA: GCGACGGCAGAUUACGGGUAGAGUGGCCGCGC
modifications: 2'-F G, 2'-OMe A/C/U, 5' C6NH2, 3' idT
B7 was tested, and the binding signal [3] was > 10 fold worse than Aptamer 3.

B8: Aptamer 152 (ssRNA)
RNA: GCGACGGUAGAUUAUGGGAAGUGUGACCGCGC
modifications: 2'-F G, 2'-OMe A/C/U, 5' C6NH2, 3' idT
B8: binds [4].

B9: Aptamer 147 (ssRNA)
RNA: GGCGACGGUAGAUUAUGGGCAGUGUGACCGCGCC
modifications: 2'-F G, 2'-OMe A/C/U, 5' C6NH2, 3' idT
Work on B9 yielded a Kd [5] of 110 pM.

B10: Aptamer 146 (ssRNA)
RNA: GAUGACGGUAGAUUAUGGGCAGUGUGACCGCAUC
modifications: 2'-F G, 2'-OMe A/C/U, 5' C6NH2, 3' idT
B10: binds [4].

B11: Aptamer 269 (ssRNA)
RNA: GGCGACGGUAGAUUAUGGGCAGUGUGACCGCGCC
modifications: 2'-OMe A/C/U, 2'-OMe G in stems S1, S2 and loop L2, 2'-F at other G, 5' C6NH2, 3' idT
With B11 the Kd [5] was 126 pM.

B12: Aptamer 151 (ssRNA)
RNA: GGCGACGGUAGAUUAUGGGAAGUGUGACCGCGCC
modifications: 2'-F G, 2'-OMe A/C/U, 5' C6NH2, 3' idT
B12: binds [4].

B13: Aptamer 180 (ssRNA)
RNA: CGGUGGGAAAUGUGAGAGGGGUUGCCG
modifications: 2'-F G, 2'-OMe A/C/U, 5' C6NH2, 3' idT
B13 was tested, and the binding signal [1] was > 10 fold worse than Aptamer 8.

B14: Aptamer 176 (ssRNA)
RNA: CGGUGGGAAAUGUGAUAUGGGUUGCCG
modifications: 2'-F G; 2'-OMe A,C,U; 5' C6NH2; 3' idT
With B14 the binding signal [2] was > 10 fold worse than Aptamer 8.

B15: Aptamer 142 (ssRNA)
RNA: GAUGACGGUAGAUUUCGGGUAGUGUGACCGCAUC
modifications: 2'-F G, 2'-OMe A/C/U, 5' C6NH2, 3' idT
B15: binds [4].

B16: Aptamer 150 (ssRNA)
RNA: GAUGACGGUAGAUUAUGGGAAGUGUGACCGCAUC
modifications: 2'-F G, 2'-OMe A/C/U, 5' C6NH2, 3' idT
B16: binds [4].

B17: Aptamer 169 (ssRNA)
RNA: CGGUGGGAAAUGUAAGAUGGGUUGCCG
modifications: 2'-F G; 2'-OMe A,C,U; 5' C6NH2; 3' idT
In the case of B17, the binding signal [2] is reported as > 10 fold worse than Aptamer 8.

B18: Aptamer 172 (ssRNA)
RNA: CGGUGGGAAAUGUGGGAUGGGUUGCCG
modifications: 2'-F G, 2'-OMe A/C/U, 5' C6NH2, 3' idT
B18 was tested, and the binding signal [1] was > 10 fold worse than Aptamer 8.

B19: Aptamer 179 (ssRNA)
RNA: CGGUGGGAAAUGUGAGUUGGGUUGCCG
modifications: 2'-F G; 2'-OMe A,C,U; 5' C6NH2; 3' idT
In the case of B19, the binding signal [2] is reported as > 10 fold worse than Aptamer 8.

B20: Aptamer 175 (ssRNA)
RNA: CGGUGGGAAAUGUGAAAUGGGUUGCCG
modifications: 2'-F G; 2'-OMe A,C,U; 5' C6NH2; 3' idT
With B20 the binding signal [2] was > 10 fold worse than Aptamer 8.
